Test [1] deals with T1, human CD40 (BMS, CY24FEB06-01) (human, UniProt P25942 21-193).
T1 construct: Soluble reagent of the bead and ELISA RBA; It is detected with an anti-human IgG (Fc) mAb, so it may be a CD40-Ig fusion
Briefly: bead RBA, competition with IZ-CD40L.

Test [2] has as its target human CD40 on RAMOS human B cells (human, UniProt P25942 21-277). Briefly: cell-based or functional assay.
In test [3] the target is T2, human CD40 (BMS, CY24FEB06-01) (human, UniProt P25942 21-193).
T2 construct: Soluble human CD40 reagent of the ELISA RBA
Nature of the test: ELISA RBA, competition with IZ-CD40L for soluble human CD40.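 Note: Neutravidin-coated 384-well plates, dAb–human CD40 complex incubated 2 h at room temperature, read-out as absorbance at 450 nm.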
Description: Clear walled High Bind, 384-well plates (Corning, UK) were coated with 25 μl of 1 μg/ml Neutravidin in 0.2 M carbonate-bicarbonate buffer, pH 9.4 overnight at 4° C. The following day, assay plates were washed with 0.1% (v/v) Tween PBS buffer, blocked with 1% (w/v) BSA in PBS for 1 hour at room temperature and washed again. […] Following washing of the assay plate, the dAb:human CD40 complex was incubated in the assay plate at room temperature for 2 hours with gentle agitation. […] Absorbance signal was measured using a SpectraMax® M5e plate reader (Molecular Devices) at 450 nm following neutralization with 1M HCl solution.

The target of test [4] is T3, human CD40 (W109L, L121P) Fc fusion (human, UniProt P25942 21-193).
T3 construct: As m1 with W109L and L121P; also called hCD40-M4; not shown: human IgG1 Fc
Nature of the test: SPR ProteOn XPR36.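 Note: surface plasmon resonance with CD40-Fc fusions captured through their Fc on an anti-human IgG chip, sensorgrams reference-subtracted against surfaces lacking CD40-Fc.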

The target of test [5] is T4, human CD40 (H76R, W109L, L121P) Fc fusion (human).
T4 construct: As m1 with H76R, W109L and L121P; also called hCD40-M5; not shown: human IgG1 Fc
T4 chain: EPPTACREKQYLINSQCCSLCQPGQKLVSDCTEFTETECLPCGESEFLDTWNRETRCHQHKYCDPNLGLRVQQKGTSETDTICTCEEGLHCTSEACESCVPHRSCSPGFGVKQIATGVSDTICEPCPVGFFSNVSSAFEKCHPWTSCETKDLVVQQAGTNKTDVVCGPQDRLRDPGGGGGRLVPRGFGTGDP
Briefly: SPR ProteOn XPR36.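 Note: surface plasmon resonance with CD40-Fc fusions captured through their Fc on an anti-human IgG chip, sensorgrams reference-subtracted against surfaces lacking CD40-Fc.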

Test [6] has as its target T5, wild type cynomolgus monkey CD40 Fc fusion (cynomolgus monkey; human).
T5 construct: also called wt-cyno-CD40; wt-cCD40; not shown: human IgG1 Fc
T5 chain: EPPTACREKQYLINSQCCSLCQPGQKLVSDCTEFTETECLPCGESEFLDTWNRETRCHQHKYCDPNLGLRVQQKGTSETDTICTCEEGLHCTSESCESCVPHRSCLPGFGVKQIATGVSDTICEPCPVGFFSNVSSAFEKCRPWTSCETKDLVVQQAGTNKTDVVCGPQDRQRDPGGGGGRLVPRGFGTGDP
Nature of the test: SPR ProteOn XPR36.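 Note: surface plasmon resonance with CD40-Fc fusions captured through their Fc on an anti-human IgG chip, sensorgrams reference-subtracted against surfaces lacking CD40-Fc.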

Test [7] deals with T6, human serum albumin (human, UniProt P02768 25-609).
T6 construct: Amine-coupled to a CM5 BIAcore chip; also called HSA
Briefly: SPR (BIAcore 3000), HSA amine-coupled on CM5 chip, ILF as analyte, 1:1 Langmuir fit, 25 C.
Excerpt: (§1) A BIAcore™ 3000 instrument (GE Healthcare) was used to analyze the binding kinetics of anti-CD40-AlbudAb ILFs to human and cynomolgus serum albumin. Approximately 400 response units (RU) of human serum albumin (HSA) or cynomolgus serum albumin (CSA) were immobilized on a flow-cell of a CM5 BIAcore™ chip using an Amine Coupling Kit (GE Healthcare). A second flow cell without any ligand immobilized served as a reference flow-cell for inline referencing. An appropriate doubling dilution series of each dAb to be analyzed was prepared in HBS-EP buffer (0.01 M HEPES pH 7.4 with 0.15 M NaCl, 3 mM EDTA and 0.005% v/v Surfactant P20, GE Healthcare). Two hundred microlitres of each ILF were injected in duplicate using the instrument's KINJECT function. The injections were made across the serum albumin-immobilized and reference flow-cells in series, with inline subtraction of the signal from the reference cell. The experiment was performed at 25° C. and a flow rate of 40 μl/min of HBS-EP. After each injection had been completed, the dAb was allowed to dissociate from the ligand in buffer for 120 s before regeneration with a 10 μl injection of 10 mM glycine pH 2.0. A reference injection of HBS-EP buffer blank (containing no analyte) was also injected under the same conditions to serve as a second reference for subtraction from each analyte trace. BIAevaluation 4.1 software (GE Healthcare) was used to subtract both the reference flow-cell trace and the buffer blank trace from each analyte trace.
(§2) The same software was used to perform a simultaneous, global fit of a 1:1 (Langmuir) kinetic model to the association and dissociation phases of the analyte dilution series traces. This model yielded association and dissociation rate constants (kₐ and kd, respectively) and the equilibrium dissociation constant (KD) of the interaction.

In test [8] the target is human CD40 (human, UniProt P25942 21-277). Briefly: cell-based or functional assay.
Test [9] has as its target T7, cynomolgus serum albumin (cynomolgus, UniProt A2V9Z4 25-608).
T7 construct: Amine-coupled to a CM5 BIAcore chip; also called CSA; Cyno Serum Albumin
Nature of the test: SPR (BIAcore 3000), CSA amine-coupled on CM5 chip, ILF as analyte, 1:1 Langmuir fit, 25 C.
Excerpt: as §1, §2

Results on 19 molecules are retold here after patent US20200199244A1 (published 2020).

Values joined by “and” are separate entries in the source; they are usually repeats but may differ in a detail not shown here. Equal values may be shown once. Some results are limits rather than exact numbers.

T7 sequence (A2V9Z4 25-608 limits assumed): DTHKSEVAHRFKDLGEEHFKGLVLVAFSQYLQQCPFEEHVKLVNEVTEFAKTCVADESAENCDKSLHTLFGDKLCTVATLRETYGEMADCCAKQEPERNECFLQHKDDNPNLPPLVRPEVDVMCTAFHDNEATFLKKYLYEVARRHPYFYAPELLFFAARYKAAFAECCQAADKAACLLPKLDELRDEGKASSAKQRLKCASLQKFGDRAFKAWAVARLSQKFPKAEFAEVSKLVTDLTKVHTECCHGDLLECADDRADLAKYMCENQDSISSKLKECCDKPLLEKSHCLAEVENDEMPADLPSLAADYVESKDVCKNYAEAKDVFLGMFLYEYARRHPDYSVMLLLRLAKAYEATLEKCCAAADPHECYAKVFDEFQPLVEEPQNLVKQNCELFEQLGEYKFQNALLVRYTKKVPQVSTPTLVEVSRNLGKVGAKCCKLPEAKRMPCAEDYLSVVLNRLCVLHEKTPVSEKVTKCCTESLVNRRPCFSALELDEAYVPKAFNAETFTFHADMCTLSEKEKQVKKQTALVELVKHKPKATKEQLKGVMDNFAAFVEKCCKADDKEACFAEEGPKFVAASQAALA
T6 sequence (P02768 25-609 limits assumed): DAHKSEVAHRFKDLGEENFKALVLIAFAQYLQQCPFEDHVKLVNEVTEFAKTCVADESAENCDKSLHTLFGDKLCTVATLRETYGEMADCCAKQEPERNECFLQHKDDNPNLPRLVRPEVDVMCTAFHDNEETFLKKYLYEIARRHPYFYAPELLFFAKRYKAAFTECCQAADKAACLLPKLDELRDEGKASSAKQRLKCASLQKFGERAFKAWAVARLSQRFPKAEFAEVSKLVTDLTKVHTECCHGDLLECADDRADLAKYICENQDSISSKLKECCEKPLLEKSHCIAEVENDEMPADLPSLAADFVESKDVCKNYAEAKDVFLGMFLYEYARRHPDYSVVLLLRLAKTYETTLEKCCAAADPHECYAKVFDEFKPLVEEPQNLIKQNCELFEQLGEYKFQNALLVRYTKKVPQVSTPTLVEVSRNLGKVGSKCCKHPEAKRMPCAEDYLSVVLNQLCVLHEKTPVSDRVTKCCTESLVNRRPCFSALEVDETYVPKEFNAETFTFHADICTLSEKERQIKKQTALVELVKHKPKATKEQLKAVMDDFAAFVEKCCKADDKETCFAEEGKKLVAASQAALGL

B1: BMS3h-202 (other)
VH: EVQLLESGGGLVQPGGSLRLSCAASGFTFPTAEMVWVRQAPGKGLEWVSSISASGGSTYYADSVKGRFTISRDNSKNTLYLQMNSLRAEDTAVYYCAKEPVSYVATFDYWGQGTLVTVSS
notes: dAb, single VH
For the molecule B1, the EC50 in test [1] was 3700 nM and 3000 nM.

B2: BMS3h-131 (other)
VL: DIQMTQSPSSLSASVGDRVTITCRANSSILWALAWYQQKPGKAPKLLIESSSGLQSGVPSRFSGSGSGTDFTLTISSLQPEDFATYYCVQNAGWPGTFGQGTKVEIKR
notes: dAb, single VK
With B2, the EC50 in test [1] was 500 nM and > 1000 nM.

B3: BMS3h-197 (other)
VH: EVQLLESGGGLVQPGGSLRLSCAASGFTFGSAAMDWVRQAPGKGLEWVSSINDMGSNTYYADSVKGRFTISRDNSKNTLYLQMNSLRAEDTAVYYCAKQGGRFDYWGQGTLVTVSS
notes: dAb, single VH
With B3, the EC50 in [1] was determined as 30 nM.

B4: BMS3h-56-201 (other)
VH: EVQLLESGGGLVQPGGSLRLSCAASGFTFRDYEMWWVRQAPGKGLERVSAINPQGTRTYYADSVKGRFTISRDNSKNTLYLQMNSLRAEDTAVYYCAKLPFYFQEWGQGTLVTVSS
notes: domain antibody (dAb): single human VH domain
B4: the “EC50 ICAM1 cell assay” value in [2] turned out to be 10 nM. For the same molecule, the EC50 in test [3] was 3.7 nM and 2.3 nM.

B5: BMS3h-56-1 (other)
VH: EVQLLESGGGLVQPGGSLRLSCAASGFTFRDYEMWWVRQAPGKGLERVSAINPQGTRTYYADSVKGRFTISRDNSKNTLYLQMNSLRAEDTAVYYCAKLPFTFEDWGQGTLVTVSS
notes: domain antibody (dAb), single VH domain; also called 3h-56-l
As to B5, the binding result in test [4], in test [5] and in test [6] was “no binding (tested: 405 nM)” in each case.

B6: BMS3h-56 (other)
VH: EVQLLESGGGLVQPGGSLRLSCAASGFTFRDYEMWWVRQAPGKGLERVSAINPQGTRTYYADSVKGRFTISRDNSKNTLYLQMNSLRAEDTAVYYCAKLPFIFDYWGQGTLVTVSS
notes: dAb, single VH
Turning to B6, the concentration giving a half-maximal response (EC50) in test [1] was 1000 nM and 500 nM.

B7: BMS3h-56-215 (other)
VH: EVQLLESGGGLVQPGGSLRLSCAASGFTFRDYEMWWVRQAPGKGLERVSAINPHGSLTYYADSVKGRFTISRDNSKNTLYLQMNSLRAEDTAVYYCAKLPFTFDDWGQGTLVTVSS
notes: as for B4
Take B7: in [2], the “EC50 ICAM1 cell assay” value amounted to 40 nM. The concentration giving a half-maximal response (EC50) in [3] was 3.2 nM and 4.6 nM.

B8: BMS3h-56-2 (other)
VH: EVQLLESGGGLVQPGGSLRLSCAASGFTFRDYEMWWVRQAPGKGLERVSAINPQGTRTYYADSVKGRFTISRDNSKNTLYLQMNSLRAEDTAVYYCAKLPFTFDDWGQGTLVTVSS
notes: domain antibody (dAb), single VH domain
As for B8, the binding result in [4], in test [5] and in test [6] was “no binding (tested: 405 nM)” in each case.

B9: BMS3h-56-202 (other)
VH: EVQLLESGGGLVQPGGSLRLSCAASGFTFRDYEMWWVRQAPGKGLERVSAINPQGTRTYYADSVKGRFTISRDNSKNTLYLQMNSLRAEDTAVYYCAKLPTYFSDRGQGTLVTVSS
notes: as for B8
As for B9, the binding result in test [4], in [5] and in [6] was “no binding (tested: 405 nM)” each time.

B10: BMS3h-56-5 (other)
VH: EVQLLESGGGLVQPGGSLRLSCAASGFTFRDYEMWWVRQAPGKGLERVSAINPQGTRTYYADSVMGRFTISRDNSKNTLYLQMNSLRAEDTAVYYCAKLPFTFDDWGQGTLVTVSS
notes: as for B8
As for B10, the binding result in test [4], in [5] and in test [6] was “no binding (tested: 405 nM)” throughout.

B11: BMS3h-56-203 (other)
VH: EVQLLESGGGLVQPGGSLRLSCAASGFTFRDYEMWWVRQAPGKGLERVSAINPQGTRTYYADSVKGRFTISRDNSKNTLYLQMNSLRAEDTAVYYCAKLPFFFEEWGQGTLVTVSS
notes: as for B4
For B11, the “EC50 ICAM1 cell assay” value in [2] came out at 70 nM. The EC50 in test [3] was 5.2 nM and 4.3 nM.

B12: BMS3h-37 (other)
VH: EVQLLESGGGLVQPGGSLRLSCAASGFTFEWYEMQWVRQAPGKGLEWVSAISGDGYRTYYADSVKGRFTISRDNSKNTLYLQMNSLRAEDTAVYYCAKELGYFDYWGQGTLVTVSS
notes: dAb, single VH
For the molecule B12, the concentration giving a half-maximal response (EC50) in [1] was 100 nM and 200 nM.

B13: BMS3h-56-217 (other)
VH: EVQLLESGGGLVQPGGSLRLSCAASGFTFRDYEMWWVRQAPGKGLERVSAINPWGSLTYYADSVKGRFTISRDNSKNTLYLQMNSLRAEDTAVYYCAKLPFTFEDWGQGTLVTVSS
notes: as for B8
Consider B13, for which the binding result in test [4], in test [5] and in test [6] was “no binding (tested: 405 nM)” throughout.

B14: BMS3h-56-206 (other)
VH: EVQLLESGGGLVQPGGSLRLSCAASGFTFRDYEMWWVRQAPGKGLERVSAINPQGTRTYYADSVKGRFTISRDNSKNTLYLQMNSLRAEDTAVYHCAKLPMFFEDWGQGTLVTVSN
notes: as for B8
As to B14, the binding result in [4], in [5] and in test [6] was “no binding (tested: 405 nM)” each time.

B15: BMS3h-38 (other)
VH: EVQLLESGGGLVQPGGSLRLSCAASGFTFEEEEMIWVRQAPGKGLEWVSAISGSGGSTYYADSVKGRFTISRDNSKNTLYLQMNSLRAEDTAVYYCAKEPFRFDYWGQGTLVTVSS
notes: dAb, single VH
Consider B15, for which the EC50 in [1] is 600 nM and 650 nM.

B16: BMS3h-41 (other)
VH: EVQLLESGGGLVQPGGSLRLSCAASGFTFTEYEMIWVRQAPGKGLEWVSSISGNGANTYYADSVKGRFTISRDNSKNTLYLQMNSLRAEDTAVYYCAKEPLRFDYWGQGTLVTVSS
notes: dAb, single VH
With B16, the EC50 in test [1] was 2000 nM and 1600 nM.

B17: BMS3h-193 (other)
VL: DIQMTQSPSSLSASVGDRVTITCRASQTIERRLNWYQQKPGKAPKLLIYLASRLQSGVPSRFSGSGSGTDFTLTISSLQPEDFATYYCHQYASPPLTFGQGTKVEIKR
notes: dAb, single VK
In turn, B17 returned an EC50 in test [1] of 1000 nM.

B18: DMS0662 DOM7h-11-90-TVAAPS-BMS3h-56-201 (bispecific antibody)
chain: DIQMTQSPSSLSASVGDRVTITCRASRPIGTMLSWYQQKPGKAPKLLILAFSRLQSGVPSRFSGSGSGTDFTLTISNLQPEDFATYYCAQAGTHPTTFGQGTKVEIKRTVAAPSEVQLLESGGGLVQPGGSLRLSCAASGFTFRDYEMWWVRQAPGKGLERVSAINPQGTRTYYADSVKGRFTISRDNSKNTLYLQMNSLRAEDTAVYYCAKLPFYFQEWGQGTLVTVSS
notes: AlbudAb inline fusion (ILF): an anti-CD40 dAb and an anti-serum-albumin dAb joined by a linker in one polypeptide
In the case of B18, in test [7], the Kd is 1.21 nM and 1.23 nM; the koff is 0.00133 s⁻¹ and 0.00147 s⁻¹; the on-rate (kon) is 1.1e+06 M⁻¹ s⁻¹ and 1.19e+06 M⁻¹ s⁻¹. Besides, in test [8], the “ICAM-1 Cell Assay EC50 (nM), 10% bovine serum” value worked out at 33.5 nM and the “ICAM-1 Cell Assay EC50 (nM), 10% human serum” value was over 1000 nM. Moreover, in test [9], the equilibrium dissociation constant (Kd) is 2.5 nM and 2.42 nM; the koff is 0.00252 s⁻¹ and 0.00266 s⁻¹; the kon is 1.01e+06 M⁻¹ s⁻¹ and 1.1e+06 M⁻¹ s⁻¹.

B19: DMS0663 DOM7h-11-86-TVAAPS-BMS3h-56-201 (bispecific antibody)
chain: DIQMTQSPSSLSASVGDRVTITCRASRPIGTMLSWYQQKPGKAPKLLILAFSRLQSGVPSRFSGSGSGTDFTLTISSLQPEDVATYYCAQAGTHPTTFGQGTKVEIKRTVAAPSEVQLLESGGGLVQPGGSLRLSCAASGFTFRDYEMWWVRQAPGKGLERVSAINPQGTRTYYADSVKGRFTISRDNSKNTLYLQMNSLRAEDTAVYYCAKLPFYFQEWGQGTLVTVSS
notes: as for B18
With B19, in [7], the equilibrium dissociation constant (Kd) is 1.12 nM and 1.21 nM; the off-rate (koff) is 0.0014 s⁻¹ and 0.0016 s⁻¹; the kon was 1.25e+06 M⁻¹ s⁻¹ and 1.32e+06 M⁻¹ s⁻¹. Also, in [8], the “ICAM-1 Cell Assay EC50 (nM), 10% bovine serum” value was 21.4 nM and the “ICAM-1 Cell Assay EC50 (nM), 10% human serum” value was over 1000 nM. For the same molecule, in test [9], the Kd was 2.38 nM and 2.52 nM; the off-rate (koff) was 0.00281 s⁻¹ and 0.00296 s⁻¹; the kon was found to be 1.18e+06 M⁻¹ s⁻¹.
